The results in this text go back to patent publication US20240123070A1, “EPITOPE PEPTIDE OF RAS G13D MUTANT AND T CELL RECEPTOR RECOGNIZING RAS G13D MUTANT” (SHANGHAI GENBASE BIOTECHNOLOGY CO., LTD., priority 2021, published 2024).

Positions count from the first letter of the chain named.

T1: KRAS G13D (G13D-RT6) peptide on HLA-DQA1*05:01 / HLA-DQB1*03:01 (human)
T1 chain: YKLVVVGAGDVGKSAL

B1: B8.2.4 TCR mutant β95Q-A (protein)
chain 1: AQKITQTQPGMFVQEKEAVTLDCTYDTSDPSYGLFWYKQPSSGEMIFLIYQGSYDQQNATEGRYSLNFQKARKSANLVISASQLGDSAMYFCAMRERTGTASKLTFGTGTRLQVTL
chain 2: DVKVTQSSRYLVKRTGEKVFLECVQDMDHENMFWYRQDPGLGLRLIYFSYDVKMKEKGDIPEGYSVSREKKERFSLILESASTNQTSMYLCASSATVPPQHFGDGTRLSIL
B2: B8.2.4 TCR mutant β95Q-M (protein)
chain 1: B1 chain 1
chain 2: B1 chain 2 with A95M
B3: B8.2.4 TCR mutant β98P-G (protein)
chain 1: B1 chain 1
chain 2: B1 chain 2 with A95Q, P98G
B4: B8.2.4 TCR mutant β95Q-D (protein)
chain 1: B1 chain 1
chain 2: B1 chain 2 with A95D
B5: B8.2.4 TCR mutant β98P-M (protein)
chain 1: B1 chain 1
chain 2: B1 chain 2 with A95Q, P98M
B6: B8.2.4 TCR mutant β95Q-I (protein)
chain 1: B1 chain 1
chain 2: B1 chain 2 with A95I
B7: B8.2.4 TCR mutant β98P-V (protein)
chain 1: B1 chain 1
chain 2: B1 chain 2 with A95Q, P98V
B8: B8.2.4 TCR mutant β98P-W (protein)
chain 1: B1 chain 1
chain 2: B1 chain 2 with A95Q, P98W
B9: B8.2.4 TCR mutant β97V-S (protein)
chain 1: B1 chain 1
chain 2: B1 chain 2 with A95Q, V97S
B10: B8.2.4 TCR mutant β95Q-T (protein)
chain 1: B1 chain 1
chain 2: B1 chain 2 with A95T
B11: B8.2.4 TCR mutant β95Q-W (protein)
chain 1: B1 chain 1
chain 2: B1 chain 2 with A95W
B12: B8.2.4 TCR mutant β95Q-G (protein)
chain 1: B1 chain 1
chain 2: B1 chain 2 with A95G
B13: B8.2.4 TCR mutant β98P-D (protein)
chain 1: B1 chain 1
chain 2: B1 chain 2 with A95Q, P98D
B14: B8.2.4 TCR mutant β95Q-H (protein)
chain 1: B1 chain 1
chain 2: B1 chain 2 with A95H
B15: B8.2.4 TCR mutant β98P-C (protein)
chain 1: B1 chain 1
chain 2: B1 chain 2 with A95Q, P98C
B16: B8.2.4 TCR mutant β95Q-V (protein)
chain 1: B1 chain 1
chain 2: B1 chain 2 with A95V
B17: B8.2.4 TCR mutant β95Q-E (protein)
chain 1: B1 chain 1
chain 2: B1 chain 2 with A95E
B18: B8.2.4 TCR mutant β98P-R (protein)
chain 1: B1 chain 1
chain 2: B1 chain 2 with A95Q, P98R
B19: B8.2.4 TCR mutant β95Q-Y (protein)
chain 1: B1 chain 1
chain 2: B1 chain 2 with A95Y
B20: B8.2.4 TCR mutant β98P-L (protein)
chain 1: B1 chain 1
chain 2: B1 chain 2 with A95Q, P98L
B21: B8.2.4 TCR mutant β95Q-C (protein)
chain 1: B1 chain 1
chain 2: B1 chain 2 with A95C
B22: B8.2.4 TCR mutant β95Q-N (protein)
chain 1: B1 chain 1
chain 2: B1 chain 2 with A95N
B23: B8.2.4 TCR mutant β97V-I (protein)
chain 1: B1 chain 1
chain 2: B1 chain 2 with A95Q, V97I
B24: B8.2.4 TCR mutant β98P-F (protein)
chain 1: B1 chain 1
chain 2: B1 chain 2 with A95Q, P98F
B25: B8.2.4 TCR mutant β98P-H (protein)
chain 1: B1 chain 1
chain 2: B1 chain 2 with A95Q, P98H
B26: B8.2.4 TCR mutant β97V-T (protein)
chain 1: B1 chain 1
chain 2: B1 chain 2 with A95Q, V97T
B27: B8.2.4 TCR mutant β98P-S (protein)
chain 1: B1 chain 1
chain 2: B1 chain 2 with A95Q, P98S

In this assay the target is T1, KRAS G13D (G13D-RT6) peptide on …. Put plainly: NFAT-luciferase; Jurkat-NFAT-Luc with the TCR and Lovo-DPA0301:DPB0501 cells loaded with G13D-RT6; against wild-type B8.2.4 TCR; full-length, on cells. The note with it: chains Valpha:Vbeta.
For the molecule B1, the TCR Mut RLU/WT RLU stood at 0.86.

The molecule B2 yielded a TCR Mut RLU/WT RLU of 0.99. As to B3, the TCR Mut RLU/WT RLU came to 0.73. As to B4, the TCR Mut RLU/WT RLU worked out at 0.6.

Turning to B5, the TCR Mut RLU/WT RLU came to 0.83. As to B6, the TCR Mut RLU/WT RLU stood at 0.74.

B7 came in with a TCR Mut RLU/WT RLU of 0.63. For B8, the TCR Mut RLU/WT RLU was 0.81. On to B9, for which the TCR Mut RLU/WT RLU turned out to be 0.78. B10 displayed a TCR Mut RLU/WT RLU of 0.59. On to B11, for which the TCR Mut RLU/WT RLU was 0.88. B12: the TCR Mut RLU/WT RLU was 1.03.

B13 yielded a TCR Mut RLU/WT RLU of 0.8. In the case of B14 it was 0.68. B15: the TCR Mut RLU/WT RLU came out at 1.11. B16 returned a TCR Mut RLU/WT RLU of 0.76.

B17 displayed a TCR Mut RLU/WT RLU of 0.81. Molecule B18 displayed a TCR Mut RLU/WT RLU of 0.73. In turn, B19 displayed a TCR Mut RLU/WT RLU of 0.92. Turning to B20, the TCR Mut RLU/WT RLU amounted to 0.67.

In turn, B21 returned a TCR Mut RLU/WT RLU of 1.14.

On to B22, for which the TCR Mut RLU/WT RLU was 0.6.

Molecule B23 came in with a TCR Mut RLU/WT RLU of 0.61.

B24 displayed a TCR Mut RLU/WT RLU of 0.96. B25 gave a TCR Mut RLU/WT RLU of 0.6. B26 showed a TCR Mut RLU/WT RLU of 0.98. The molecule B27 displayed a TCR Mut RLU/WT RLU of 0.94.
